Results reported in the supplement of paper PMC7877785.
± gives the uncertainty stated by the source.

Test: self-splicing fitness, log relative to wild type (ln ratio); higher = more splicing; Tetrahymena group I intron in knt gene, E. coli kanamycin selection, DiMSum; sequences stand for … in CUCUCU…GGAGGGAAAAGUUAUCAGGCAUGCACCUGGUAGCUAGUCUUUAAACCAAUAGAUUGCAUCGGUUUAAAAGGCAAGACCGUCAAAUUGCGGGAAAGGGGUCAACAGCCGUUCAGUACCAAGUCUCAGGGGAAACUUUGAGAUGGCCUUGCAAAGGGUAUGGUAAUAAGCUGACGGACAUGGUCCUAACCACGCAGCCAAGUCCUAAGUCAACAGAUCUUCUGUUGAUAUGGAUGCAGUUCACAGACUAAAUGUCGGUCGGGGAAGAUGUAUUCUUCUCAUAAGAUAUAGUCGGACCUCUCCUUAAUGGGAGCUAGCGGAUGAAGUGAUGCAACACUGGAGCCGCUGGGAACUAAUUUGUAUGCGAAAGUAUAUUGAUUAGUUUUGGAGUACUCGUGGUCG
Procedure, shortened: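 Pooled colonies went to amplicon sequencing on an Illumina HiSeq 2500 after six replicate transformations. The plates were LB agar with 100 μg/mL carbenicillin, 50 μM IPTG and 0.2% rhamnose, with or without 25 μg/mL kanamycin, incubated overnight at 37°C or 30°C. The E. coli BL21(DE3) library had all eight P1ex-region intron nucleotides randomised, the intron placed in the knt kanamycin-resistance gene on pET-22b(+). DiMSum fitness is the error-weighted combination of replicate fold changes, kanamycin against none, normalised to wild type.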

Row | Sequence | self-splicing fitness (ln) (30 °C) | self-splicing fitness (ln) (37 °C)
1 | ACCGAGCAAUAUUACGCUCC | -2.85 ± 0.39 | -1.79 ± 0.44
2 | CAAUAGCAAUAUUACGGGUA | -3.9 ± 0.21 | -3.12 ± 0.18
3 | CACGAGCAAUAUUACGUUUA | -2.88 ± 0.18 | -2.52 ± 0.19
4 | GCCCAGCAAUAUUACGAUUG | -2.63 ± 0.14 | -2.57 ± 0.22
5 | UCAAAGCAAUAUUACGGCGA | -0.708 ± 0.074 | -0.462 ± 0.068
6 | AGAUAGCAAUAUUACGUGCU | -1.39 ± 0.1 | -0.664 ± 0.12
7 | GGCCAGCAAUAUUACGUAAA | -1.26 ± 0.11 | -0.35 ± 0.14
8 | CCGGAGCAAUAUUACGACAA | -3.72 ± 0.43 | -2.16 ± 0.3
9 | UGCGAGCAAUAUUACGGACA | -0.643 ± 0.14 | 0.226 ± 0.2
10 | GACGAGCAAUAUUACGACAA | – | -1.24 ± 0.24
11 | CCACAGCAAUAUUACGGAUU | -3.49 ± 0.11 | -3.12 ± 0.15
12 | GCGAAGCAAUAUUACGGUUG | -1.54 ± 0.11 | -1.9 ± 0.15
13 | GCCGAGCAAUAUUACGUGAC | -2.14 ± 0.15 | -1.16 ± 0.19
14 | CGCCAGCAAUAUUACGAGUA | -2.79 ± 0.18 | -1.52 ± 0.18
15 | AUACAGCAAUAUUACGAACA | -1.78 ± 0.17 | 0.157 ± 0.14
16 | CAUCAGCAAUAUUACGCUAC | -3.62 ± 0.27 | -3.33 ± 0.46
17 | GGUCAGCAAUAUUACGUCUG | -0.665 ± 0.094 | -0.321 ± 0.11
18 | GCGCAGCAAUAUUACGAAAG | -2.66 ± 0.16 | -1.68 ± 0.14
19 | CUUAAGCAAUAUUACGAAGA | -2.98 ± 0.24 | -1.45 ± 0.26
20 | CUAGAGCAAUAUUACGUGAA | -3.81 ± 0.23 | -2.07 ± 0.26
21 | AACGAGCAAUAUUACGAGCG | -2.76 ± 0.19 | -2.55 ± 0.2
22 | UUAAAGCAAUAUUACGUCCC | -1.51 ± 0.11 | -0.906 ± 0.14
23 | AAUCAGCAAUAUUACGCGAU | -2.8 ± 0.14 | -2.07 ± 0.14
24 | GGAAAGCAAUAUUACGAUUC | -1.84 ± 0.16 | -0.276 ± 0.16
25 | AUUGAGCAAUAUUACGUGUG | -2.38 ± 0.11 | -2.41 ± 0.16

Row | Sequence | self-splicing fitness (ln) (30 °C) | self-splicing fitness (ln) (37 °C)
26 | AAGUAGCAAUAUUACGCCCG | -1.26 ± 0.23 | -0.559 ± 0.22
27 | CAGAAGCAAUAUUACGACCA | -0.857 ± 0.24 | –
28 | UAAGAGCAAUAUUACGCUUG | -2.66 ± 0.23 | -1.38 ± 0.18
29 | GUACAGCAAUAUUACGUUAG | -2.37 ± 0.15 | -1.74 ± 0.17
30 | GGAUAGCAAUAUUACGGAUG | -3.16 ± 0.33 | -0.578 ± 0.18
31 | ACUUAGCAAUAUUACGUGGC | -2.83 ± 0.16 | -2.85 ± 0.29
32 | GCGCAGCAAUAUUACGUUUU | -0.735 ± 0.049 | -0.277 ± 0.063
33 | UGGCAGCAAUAUUACGUGUU | -3.93 ± 0.19 | -2.2 ± 0.12
34 | GAUUAGCAAUAUUACGUGGU | -2.61 ± 0.18 | -2.47 ± 0.2
35 | UAGGAGCAAUAUUACGGUGA | – | -1.08 ± 0.27
36 | CUUAAGCAAUAUUACGUACA | – | -2.73 ± 0.39
37 | CGUAAGCAAUAUUACGAGUA | -4.09 ± 0.39 | -1.93 ± 0.21
38 | CCUAAGCAAUAUUACGCCUC | -2.59 ± 0.36 | –
39 | CGCAAGCAAUAUUACGCCUA | -0.46 ± 0.094 | -0.653 ± 0.1
40 | CUUGAGCAAUAUUACGCAAG | -2.37 ± 0.42 | –
41 | GGAAAGCAAUAUUACGCAAC | -3.25 ± 0.24 | -1.02 ± 0.23
42 | AUAAAGCAAUAUUACGCAAG | -1.19 ± 0.12 | -0.742 ± 0.14
43 | CGGCAGCAAUAUUACGAAUA | – | -2.07 ± 0.27
44 | UCCGAGCAAUAUUACGGCAG | -3.55 ± 0.38 | -1.44 ± 0.34
45 | CAGAAGCAAUAUUACGUUCC | – | -1.75 ± 0.47
46 | AUCAAGCAAUAUUACGGUUA | -1.06 ± 0.092 | -0.342 ± 0.095
47 | AUUGAGCAAUAUUACGCGAG | -1.83 ± 0.13 | -0.958 ± 0.14
48 | AGUCAGCAAUAUUACGCACA | -0.062 ± 0.12 | -0.284 ± 0.14
49 | GGCUAGCAAUAUUACGUCCG | -2.88 ± 0.3 | -0.381 ± 0.17
50 | ACUUAGCAAUAUUACGAUUG | -3.17 ± 0.2 | -0.306 ± 0.16

Row | Sequence | self-splicing fitness (ln) (30 °C) | self-splicing fitness (ln) (37 °C)
51 | GGGCAGCAAUAUUACGGGAU | -4.22 ± 0.42 | -1.2 ± 0.17
52 | GUCCAGCAAUAUUACGGGCG | -2.53 ± 0.12 | -0.72 ± 0.099
53 | UUAAAGCAAUAUUACGGGGG | -1.83 ± 0.13 | -2.16 ± 0.2
54 | UGCGAGCAAUAUUACGUACA | -2.18 ± 0.2 | 0.427 ± 0.21
55 | CUCAAGCAAUAUUACGGCAA | -3.15 ± 0.32 | -1.32 ± 0.24
56 | GGCCAGCAAUAUUACGGUAA | -0.188 ± 0.053 | 0.0838 ± 0.061
57 | CCAUAGCAAUAUUACGUAAA | -4.17 ± 0.2 | -3.03 ± 0.32
58 | CCUCAGCAAUAUUACGCGAA | -3.88 ± 0.34 | -3.79 ± 0.34
59 | GUCCAGCAAUAUUACGAUGA | -1.49 ± 0.084 | -0.996 ± 0.092
60 | GUGGAGCAAUAUUACGCGUG | -2.88 ± 0.37 | -1.77 ± 0.3
61 | GAAGAGCAAUAUUACGAGUU | -2.61 ± 0.16 | -2.03 ± 0.21
62 | CCCCAGCAAUAUUACGAAUU | -3.01 ± 0.23 | -1.59 ± 0.36
63 | GAUAAGCAAUAUUACGUCUU | -0.224 ± 0.069 | 0.135 ± 0.088
64 | AGAGAGCAAUAUUACGUUGU | -3.79 ± 0.21 | -3.07 ± 0.2
65 | CGACAGCAAUAUUACGAACG | -0.656 ± 0.11 | -0.117 ± 0.16
66 | UACGAGCAAUAUUACGCGGU | -3.15 ± 0.2 | -2.67 ± 0.26
67 | AAUGAGCAAUAUUACGCCUA | -1.13 ± 0.21 | -1.62 ± 0.25
68 | AUGGAGCAAUAUUACGGGGU | – | -2.27 ± 0.37
69 | UGGGAGCAAUAUUACGCCAU | -3.45 ± 0.33 | -0.288 ± 0.26
70 | GUGUAGCAAUAUUACGGUAG | – | -1.58 ± 0.23
71 | CCGAAGCAAUAUUACGGCGA | -2.69 ± 0.3 | -2.53 ± 0.32
72 | UCCUAGCAAUAUUACGACAU | -3.634 ± 0.026 | -2.16 ± 0.037
73 | UUCGAGCAAUAUUACGGUCG | – | -1.91 ± 0.36
74 | CCGGAGCAAUAUUACGUCGA | -3.12 ± 0.2 | -1.89 ± 0.19
75 | GUCAAGCAAUAUUACGCGUA | -1.32 ± 0.08 | -0.362 ± 0.077

Row | Sequence | self-splicing fitness (ln) (30 °C) | self-splicing fitness (ln) (37 °C)
76 | GGUCAGCAAUAUUACGGUAU | -0.344 ± 0.11 | 0.218 ± 0.13
77 | AUCCAGCAAUAUUACGAUAU | -0.123 ± 0.075 | -0.114 ± 0.071
78 | UUGCAGCAAUAUUACGUCCU | -0.816 ± 0.14 | -0.682 ± 0.18
79 | GUCGAGCAAUAUUACGACGG | – | -1.72 ± 0.43
80 | AGUAAGCAAUAUUACGUAAU | -3.15 ± 0.16 | -2.2 ± 0.17
81 | AGGAAGCAAUAUUACGAACU | -0.35 ± 0.097 | 0.434 ± 0.13
82 | ACCUAGCAAUAUUACGAGUA | -2.47 ± 0.14 | -1.16 ± 0.12
83 | CUACAGCAAUAUUACGCACA | -3.12 ± 0.2 | -3.29 ± 0.27
84 | GCGAAGCAAUAUUACGGCCA | -0.992 ± 0.092 | -0.821 ± 0.1
85 | CUCUAGCAAUAUUACGGUAG | -4.49 ± 0.33 | -1.79 ± 0.23
86 | UCUGAGCAAUAUUACGAAUG | -2.96 ± 0.26 | -1.66 ± 0.21
87 | CAGCAGCAAUAUUACGGGCU | -3.74 ± 0.17 | -2.51 ± 0.16
88 | AUUCAGCAAUAUUACGAUAU | -0.41 ± 0.057 | 0.146 ± 0.079
89 | GGGGAGCAAUAUUACGCGCG | -1.83 ± 0.15 | -0.952 ± 0.17
90 | AAUAAGCAAUAUUACGUGUA | -2.16 ± 0.12 | -1.12 ± 0.11
91 | AAAAAGCAAUAUUACGCUCA | -0.278 ± 0.058 | 0.0203 ± 0.082
92 | CAUAAGCAAUAUUACGAAGC | -3.09 ± 0.44 | –
93 | UUCAAGCAAUAUUACGCACG | -1.11 ± 0.11 | -0.411 ± 0.14
94 | UUUAAGCAAUAUUACGAAAC | – | -1.01 ± 0.39
95 | UACAAGCAAUAUUACGACGG | -0.767 ± 0.059 | -0.442 ± 0.079
96 | CUACAGCAAUAUUACGACUU | -3.83 ± 0.32 | -2.81 ± 0.35
97 | CUCCAGCAAUAUUACGCUUU | -2.78 ± 0.19 | -2.8 ± 0.26
98 | UCCUAGCAAUAUUACGGUAA | -0.552 ± 0.12 | -0.427 ± 0.11
99 | ACGGAGCAAUAUUACGCCUC | -2.43 ± 0.43 | -1.82 ± 0.27
